Like-named read-outs stand apart in the source and are kept apart here. No end group written: not given here.
Key:
Conditions in all cases: modification not given
PC7, Q16549 = molecular target: T1, PC7, Q16549
T1 chain: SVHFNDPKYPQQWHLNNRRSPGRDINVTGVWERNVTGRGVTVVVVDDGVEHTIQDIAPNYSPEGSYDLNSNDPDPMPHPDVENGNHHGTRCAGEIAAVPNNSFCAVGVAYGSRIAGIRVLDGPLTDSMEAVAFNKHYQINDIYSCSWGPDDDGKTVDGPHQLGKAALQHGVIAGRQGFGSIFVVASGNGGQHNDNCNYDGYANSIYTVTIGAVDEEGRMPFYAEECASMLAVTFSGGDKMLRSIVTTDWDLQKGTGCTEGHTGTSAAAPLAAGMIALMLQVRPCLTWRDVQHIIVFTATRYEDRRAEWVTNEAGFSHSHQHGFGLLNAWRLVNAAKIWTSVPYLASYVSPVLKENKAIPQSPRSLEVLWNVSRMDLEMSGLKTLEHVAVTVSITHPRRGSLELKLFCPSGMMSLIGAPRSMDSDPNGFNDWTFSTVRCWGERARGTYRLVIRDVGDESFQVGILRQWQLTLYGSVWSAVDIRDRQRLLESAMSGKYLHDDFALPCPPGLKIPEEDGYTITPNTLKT

PACE4, P29122 [1] = molecular target: T2, PACE4, P29122
T2 chain: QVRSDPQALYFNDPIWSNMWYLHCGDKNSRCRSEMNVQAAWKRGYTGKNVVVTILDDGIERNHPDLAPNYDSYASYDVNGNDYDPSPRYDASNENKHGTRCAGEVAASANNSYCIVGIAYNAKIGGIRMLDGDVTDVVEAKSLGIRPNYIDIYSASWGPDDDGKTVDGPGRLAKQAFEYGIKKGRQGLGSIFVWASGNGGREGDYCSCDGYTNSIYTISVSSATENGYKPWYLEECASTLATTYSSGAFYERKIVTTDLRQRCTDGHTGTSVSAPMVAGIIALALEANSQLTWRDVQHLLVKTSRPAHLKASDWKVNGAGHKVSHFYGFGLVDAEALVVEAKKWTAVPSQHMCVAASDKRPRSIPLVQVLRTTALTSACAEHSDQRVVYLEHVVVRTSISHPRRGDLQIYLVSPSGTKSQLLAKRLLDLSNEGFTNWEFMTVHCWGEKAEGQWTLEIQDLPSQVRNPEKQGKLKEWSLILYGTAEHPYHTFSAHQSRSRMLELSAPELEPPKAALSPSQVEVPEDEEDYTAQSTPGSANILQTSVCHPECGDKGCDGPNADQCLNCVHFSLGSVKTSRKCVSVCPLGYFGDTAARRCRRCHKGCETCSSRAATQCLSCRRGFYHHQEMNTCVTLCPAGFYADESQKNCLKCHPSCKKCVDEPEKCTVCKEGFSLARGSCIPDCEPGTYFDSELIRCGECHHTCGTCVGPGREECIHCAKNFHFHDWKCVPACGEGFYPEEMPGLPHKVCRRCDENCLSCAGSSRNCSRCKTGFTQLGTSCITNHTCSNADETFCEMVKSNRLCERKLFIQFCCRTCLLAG

[2] = molecular target: T3, Furin (recombinant, truncated) (mouse), P23188
T3 chain: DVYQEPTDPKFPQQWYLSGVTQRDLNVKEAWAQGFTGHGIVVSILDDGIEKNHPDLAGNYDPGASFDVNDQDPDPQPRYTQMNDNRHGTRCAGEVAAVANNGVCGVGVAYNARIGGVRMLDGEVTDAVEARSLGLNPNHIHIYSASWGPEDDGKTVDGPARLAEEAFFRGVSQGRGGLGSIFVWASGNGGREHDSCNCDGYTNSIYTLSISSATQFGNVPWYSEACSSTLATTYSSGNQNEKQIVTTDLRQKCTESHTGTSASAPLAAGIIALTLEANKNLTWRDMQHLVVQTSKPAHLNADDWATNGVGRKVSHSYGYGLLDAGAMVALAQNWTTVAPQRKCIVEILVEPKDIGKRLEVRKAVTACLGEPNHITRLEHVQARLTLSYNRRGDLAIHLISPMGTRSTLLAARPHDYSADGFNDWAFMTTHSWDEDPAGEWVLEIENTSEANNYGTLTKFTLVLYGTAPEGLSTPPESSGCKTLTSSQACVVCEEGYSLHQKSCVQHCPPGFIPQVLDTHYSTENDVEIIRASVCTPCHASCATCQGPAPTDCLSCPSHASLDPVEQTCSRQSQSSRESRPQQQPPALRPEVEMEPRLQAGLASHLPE

PC1, P29120 [3] = molecular target: T4, PC1, P29120
T4 chain: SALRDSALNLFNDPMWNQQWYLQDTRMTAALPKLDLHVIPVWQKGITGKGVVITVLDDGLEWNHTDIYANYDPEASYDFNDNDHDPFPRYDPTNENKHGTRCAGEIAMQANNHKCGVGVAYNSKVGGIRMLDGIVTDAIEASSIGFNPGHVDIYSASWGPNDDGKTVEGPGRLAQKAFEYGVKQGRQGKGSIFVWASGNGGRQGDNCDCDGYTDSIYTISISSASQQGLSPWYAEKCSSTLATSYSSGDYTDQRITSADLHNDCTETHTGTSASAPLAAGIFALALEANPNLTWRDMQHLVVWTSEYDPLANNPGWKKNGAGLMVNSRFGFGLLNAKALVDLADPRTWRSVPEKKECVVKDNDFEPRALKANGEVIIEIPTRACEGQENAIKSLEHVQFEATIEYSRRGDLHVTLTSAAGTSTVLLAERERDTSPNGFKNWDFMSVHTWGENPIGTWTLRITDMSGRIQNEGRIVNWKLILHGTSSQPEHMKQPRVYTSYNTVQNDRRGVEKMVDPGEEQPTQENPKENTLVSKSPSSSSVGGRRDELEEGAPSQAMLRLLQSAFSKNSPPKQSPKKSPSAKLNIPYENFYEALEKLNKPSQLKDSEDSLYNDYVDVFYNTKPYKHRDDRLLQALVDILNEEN

PC2, P16519 [4] = molecular target: T5, PC2, P16519
T5 chain: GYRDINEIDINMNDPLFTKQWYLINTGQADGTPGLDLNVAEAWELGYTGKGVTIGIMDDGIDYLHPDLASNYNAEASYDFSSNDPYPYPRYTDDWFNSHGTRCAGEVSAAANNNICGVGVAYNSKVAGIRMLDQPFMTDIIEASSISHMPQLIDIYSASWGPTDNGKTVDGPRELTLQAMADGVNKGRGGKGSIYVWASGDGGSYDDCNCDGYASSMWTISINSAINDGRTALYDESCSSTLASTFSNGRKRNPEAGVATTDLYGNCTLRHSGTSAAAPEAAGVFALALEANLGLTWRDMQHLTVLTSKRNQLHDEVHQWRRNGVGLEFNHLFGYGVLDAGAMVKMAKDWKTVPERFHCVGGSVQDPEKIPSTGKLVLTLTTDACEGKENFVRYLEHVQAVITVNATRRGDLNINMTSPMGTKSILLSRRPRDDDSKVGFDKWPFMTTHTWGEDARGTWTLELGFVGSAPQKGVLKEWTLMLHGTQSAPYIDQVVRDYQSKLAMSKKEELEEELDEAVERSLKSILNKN

[5] = molecular target: T3, Furin (recombinant, truncated) (mouse), …
[6] = molecular target: T3, Furin (recombinant, truncated) (mouse), …
PC2, P16519 [7] = molecular target: T5, PC2, P16519
PACE4, P29122 [8] = molecular target: T2, PACE4, P29122
[9] = molecular target: T3, Furin (recombinant, truncated) (mouse), …
PC1, P29120 [10] = molecular target: T4, PC1, P29120
[11] = molecular target: T3, Furin (recombinant, truncated) (mouse), …
PC2, P16519 [12] = molecular target: T5, PC2, P16519
[13] = molecular target: T3, Furin (recombinant, truncated) (mouse), …
PACE4, P29122 [14] = molecular target: T2, PACE4, P29122
PC1, P29120 [15] = molecular target: T4, PC1, P29120
PC2, P16519 [16] = molecular target: T5, PC2, P16519
[17] = molecular target: T3, Furin (recombinant, truncated) (mouse), …
PC2, P16519 [18] = molecular target: T5, PC2, P16519
[19] = molecular target: T3, Furin (recombinant, truncated) (mouse), …

QQVAKRRTKR [Furin propeptide fragment] was tested. Which Ki (PC7, Q16549) did it give?
Its Ki is 0.5 µM.

RRRR [Tetra-L-arginine] was tested. Which Ki (PACE4, P29122 [1]) did it give?
The Ki was over 200 µM.

What about the Ki [2] of the same binder?
Its Ki is 6.4 µM.

And the Ki (PC1, P29120 [3])?
The Ki was over 200 µM.

Ac-HHKRRR-NH2 [Ac-HHKRRR-NH2] was tested. Which Ki (PC2, P16519 [4]) did it give?
The Ki was 235 µM.

And the Ki [5]?
The Ki was 13.2 µM.

LLRVKR-NH2 [LLRVKR-NH2] was tested. Which Ki [6] did it give?
The Ki was 0.8 µM.

What about the Ki (PC2, P16519 [7]) of the same binder?
The Ki was 2.3 µM.

Which Ki (PACE4, P29122 [8]) does the source give for RRRRRR [Hexa-L-arginine] here?
Its Ki is 0.52 µM.

What about the Ki [9] of the same binder?
The Ki was 0.114 µM.

What about the Ki (PC1, P29120 [10]) of the same binder?
The Ki was 3.9 µM.

What does the source list for LLRVKR?
Ki [11]: 0.42 µM; Ki (PC2, P16519 [12]): 3.7 µM

What does the source list for RRRRRRR [Hepta-L-arginine]?
Ki [13]: 0.068 µM; Ki (PACE4, P29122 [14]): 0.24 µM; Ki (PC1, P29120 [15]): 5.2 µM

For Ac-MHKRRR-NH2 [Ac-MHKRRR-NH2], which Ki (PC2, P16519 [16]) is on record?
The Ki was 216 µM.

What about the Ki [17] of the same binder?
Its Ki is 10.3 µM.

Which results are given for Ac-MRKRRR-NH2 [Ac-MRKRRR-NH2]?
Ki (PC2, P16519 [18]): 1500 µM; Ki [19]: 2.3 µM

From US7033991
